According to patent US20180326082A1 (Sanofi, published 2018):
Like-named read-outs stand apart in the source and are kept apart here.

B1: 40 kD monoSAM PEGylated rhTSH (ligand)
chain 1: not shown
chain 2: FCIPTEYTMHIERRECAYCLTINTTICAGYCMTRDINGKLFLPKYALSQDVCTYRDFIYRTVEIPGCPLHVAPYFSYPVALSCKCGKCNTDYSDCIHEAIKTNYCTKPQKSY
modifications: see alpha chain; glycan at ASN23 is a possible PEG site; one 40 kD aminoxy PEG per protein on periodate-oxidized sialic acid of an N-linked glycan (ASN52 or ASN78 of alpha, or ASN23 of beta); 58% of the conjugate modified on the alpha subunit
notes: Sialic acid-mediated (SAM) monoPEGylation of rhTSH; also called 40 kD SAM; mono-40 kDa aminoxy PEG-TSH (SAM PEGylation)
B2: 10 kD multiSAM PEGylated rhTSH (ligand)
chain 1: not shown
chain 2: B1 chain 2
modifications: see alpha chain; glycan at ASN23 is a possible PEG site; more than one 10 kD aminoxy PEG per protein on periodate-oxidized sialic acid of the N-linked glycans (ASN52, ASN78 of alpha; ASN23 of beta); split between sites not stated
B3: 20 kD GAM+ PEGylated rhTSH (ligand)
chain 1: not shown
chain 2: B1 chain 2
modifications: see alpha chain; glycan at ASN23 is a possible PEG site; sialic acid removed with neuraminidase; one 20 kD aminoxy PEG per protein on galactose oxidase-oxidized galactose of an N-linked glycan (ASN52 or ASN78 of alpha, or ASN23 of beta)
B4: 20 kD monoSAM PEGylated rhTSH (ligand)
chain 1: not shown
chain 2: B1 chain 2
modifications: see alpha chain; glycan at ASN23 is a possible PEG site; one 20 kD aminoxy PEG per protein on periodate-oxidized sialic acid of an N-linked glycan (ASN52 or ASN78 of alpha, or ASN23 of beta)
notes: Sialic acid-mediated (SAM) monoPEGylation of rhTSH; also called 20 kD SAM
B5: 40 kD N-terminal mono-PEGylated rhTSH (ligand)
chain 1: not shown
chain 2: B1 chain 2
modifications: see alpha chain; one 40 kD aldehyde PEG per protein at an N-terminus (reductive amination); which subunit is not stated
B6: 40 kD Lysine mono-PEGylated rhTSH (ligand)
chain 1: not shown
chain 2: B1 chain 2
modifications: see alpha chain; one 40 kDa NHS PEG per protein on a lysine; which lysine and subunit are not stated
notes: SEC fraction of the mono-PEGylated species; also called mono-40 kDa NHS PEG-TSH (Lysine PEGylation)
B7: 20 kD GAM- PEGylated rhTSH (ligand)
chain 1: not shown
chain 2: B1 chain 2
modifications: see alpha chain; glycan at ASN23 is a possible PEG site; one 20 kD aminoxy PEG per protein on galactose oxidase-oxidized galactose of an N-linked glycan (ASN52 or ASN78 of alpha, or ASN23 of beta)
B8: recombinant human TSH (rhTSH), THYROGEN Thyroid Stimulating Hormone (ligand)
chain 1: not shown
chain 2: B1 chain 2
modifications: N-linked carbohydrate chain at ASN23; N-linked carbohydrate chains at ASN52 and ASN78
notes: Heterodimer of alpha and beta subunit; also called TSH control; control TSH, starting material
B9: 40 kD GAM- PEGylated rhTSH (ligand)
chain 1: not shown
chain 2: B1 chain 2
modifications: see alpha chain; glycan at ASN23 is a possible PEG site; one 40 kD aminoxy PEG per protein on galactose oxidase-oxidized galactose of an N-linked glycan (ASN52 or ASN78 of alpha, or ASN23 of beta); 77% of the conjugate modified on the alpha subunit
B10: 40 kD GAM+ PEGylated rhTSH (ligand)
chain 1: not shown
chain 2: B1 chain 2
modifications: see alpha chain; glycan at ASN23 is a possible PEG site; sialic acid removed with neuraminidase; one 40 kD aminoxy PEG per protein on galactose oxidase-oxidized galactose of an N-linked glycan (ASN52 or ASN78 of alpha, or ASN23 of beta); 66% of the conjugate modified on the alpha subunit
B11: 10 kD monoSAM PEGylated rhTSH (ligand)
chain 1: not shown
chain 2: B1 chain 2
modifications: see alpha chain; glycan at ASN23 is a possible PEG site; one 10 kD aminoxy PEG per protein on periodate-oxidized sialic acid of an N-linked glycan (ASN52 or ASN78 of alpha, or ASN23 of beta)
notes: Sialic acid-mediated (SAM) monoPEGylation of rhTSH; also called 10 kD SAM
B12: 60 kD 2-arm PEG G22C rhTSH (ligand)
chain 1: not shown
chain 2: B1 chain 2
modifications: 60 kD 2-arm cysteine-reactive PEG on Cys22
B13: 40 kD linear PEG G22C rhTSH (ligand)
chain 1: not shown
chain 2: B1 chain 2
modifications: 40 kD linear cysteine-reactive PEG on Cys22
notes: also called 40 kD linear G22C; 40 kD G22C
B14: G22C rhTSH (ligand)
chain 1: not shown
chain 2: B1 chain 2
modifications: introduced cysteine found capped after expression and purification
notes: Cysteine mutant without PEG, produced from CHO cells; also called TSH G22C(alpha); G22C(a)
B15: 40 kD 2-arm PEG G22C rhTSH (ligand)
chain 1: not shown
chain 2: B1 chain 2
modifications: 40 kD 2-arm cysteine-reactive PEG on Cys22
B16: 40 kD 4-arm PEG G22C rhTSH (ligand)
chain 1: not shown
chain 2: B1 chain 2
modifications: 40 kD 4-arm cysteine-reactive PEG on Cys22
B17: 50 kD 3-arm PEG G22C rhTSH (ligand)
chain 1: not shown
chain 2: B1 chain 2
modifications: 50 kD 3-arm cysteine-reactive PEG on Cys22
B18: 60 kD 4-arm PEG G22C rhTSH (ligand)
chain 1: not shown
chain 2: B1 chain 2
modifications: 60 kD 4-arm cysteine-reactive PEG on Cys22

Tests used:
[1] = biological target: T1, porcine TSH receptor (porcine, UniProt Q8SPP9 22-764, limits assumed); assay: competition ELISA; displacement of biotinylated rhTSH from immobilized porcine TSH receptor
T1 construct: Bought, coated on kit plates; the construct is not described; also called immobilized porcine TSH receptor
T1 sequence (Q8SPP9 22-764 limits assumed): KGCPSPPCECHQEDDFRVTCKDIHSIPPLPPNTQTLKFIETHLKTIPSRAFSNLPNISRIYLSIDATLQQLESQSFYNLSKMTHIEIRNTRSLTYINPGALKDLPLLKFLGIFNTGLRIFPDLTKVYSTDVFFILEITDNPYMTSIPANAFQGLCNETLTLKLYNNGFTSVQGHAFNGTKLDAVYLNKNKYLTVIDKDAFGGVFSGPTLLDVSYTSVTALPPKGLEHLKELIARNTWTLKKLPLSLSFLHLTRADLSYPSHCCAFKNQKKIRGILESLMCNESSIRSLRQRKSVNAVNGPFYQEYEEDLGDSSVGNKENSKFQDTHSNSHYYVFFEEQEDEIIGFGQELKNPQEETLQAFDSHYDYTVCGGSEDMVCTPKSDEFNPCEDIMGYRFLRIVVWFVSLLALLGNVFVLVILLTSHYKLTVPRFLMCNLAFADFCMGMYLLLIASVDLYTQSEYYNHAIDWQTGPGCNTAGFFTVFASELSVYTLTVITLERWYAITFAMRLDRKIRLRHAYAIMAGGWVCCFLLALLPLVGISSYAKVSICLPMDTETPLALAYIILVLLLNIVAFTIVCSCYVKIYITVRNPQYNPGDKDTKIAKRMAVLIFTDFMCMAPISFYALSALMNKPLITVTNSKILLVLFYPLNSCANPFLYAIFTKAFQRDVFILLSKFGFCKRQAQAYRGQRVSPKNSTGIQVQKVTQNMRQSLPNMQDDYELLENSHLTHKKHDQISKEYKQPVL
Protocol: (§1) Purified PEGylated conjugates were analyzed by in vitro porcine TSH receptor binding assay using the TSH Receptor Autoantibody 2nd Generation ELISA kit from RSR Limited (Kronus, Star, Id.). Instead of using the biotinylated human monoclonal autoantibody to the TSH receptor provided by the kit, we biotinylated Thyrogen® (rhTSH) to use for competitive inhibition of binding to TSH receptor. Binding of biotinylated rhTSH to immobilized porcine TSH receptor was inhibited by either rhTSH control or PEGylated rhTSH conjugates and IC₅₀ values were measured.
(§2) Thyrogen® was biotinylated with 1.7 to 1.8 biotins per protein using the ChromaLink™ Biotin Labeling Reagent according to the manufacturer's protocol (QED Bioscience Inc., San Diego, Calif.) and buffer exchanged into 50 mM sodium phosphate, 150 mM sodium chloride pH 7.0 with a Zeba™ Desalt Spin Column (Thermo Scientific, Rockford, Ill.). In vitro measurement of receptor binding was performed by competition of biotinylated Thyrogen® and PEG-rhTSH conjugate for binding to porcine TSH receptor immobilized onto 96-well plates supplied with the TSH Receptor Autoantibody 2nd Generation ELISA kit from RSR Limited (Kronus, Star, Id.). PEG-rhTSH conjugates were serially diluted 1:5 from 16 μM to 41 pM in assay buffer (100 mM HEPES pH 7.5, 20 mM EDTA, 1% BSA, 0.5% Triton X-100) and mixed 1:1 with biotinylated Thyrogen® diluted 1000-fold in assay buffer. The mixture was added to each receptor-coated well and incubated at 25° C. for 25 minutes. Unbound rhTSH was washed away and streptavidin peroxidase was added at 25° C. for 20 minutes according to the RSR Limited ELISA protocol to determine the amount of biotinylated Thyrogen® bound to the plate. The plate was then washed three times to remove excess unbound streptavidin peroxidase and then tetramethylbenzidine (TMB) was added to each well and incubated in the dark at 25° C. for 30 minutes. The reaction which was quenched with 0.5M sulfuric acid stop buffer and the absorbance of each well was read at 450 nm using a SpectraMax® 340pc plate reader (Molecular Devices, Sunnyvale, Calif.). The data was fit using a sigmoidal dose response equation with GraphPad Prism software to generate IC₅₀ values.

[2] = biological target: T1, porcine TSH receptor; assay: in vitro TSH receptor binding assay (competition ELISA)
[3] = biological target: T1, porcine TSH receptor; assay: competition ELISA; displacement of biotinylated rhTSH from immobilized porcine TSH receptor; remark: listed apart in the source
Protocol: as §1, §2

| Binder | IC50 [1] [µM] | fold change (IC50 against rhTSH) [1] [fold] | fold decrease of in vitro TSH receptor binding affinity, compared to the rhTSH control [2] [fold] | IC50 [3] [µM] | fold change (IC50 against rhTSH) [3] [fold] |
| --- | --- | --- | --- | --- | --- |
| B1 | 0.196 | 5.3 | – | – | – |
| B2 | 0.138 | 3.8 | – | – | – |
| B3 | 0.0817 | 2.2 | – | – | – |
| B4 | 0.0923 | 2.5 | – | – | – |
| B5 | 0.397 | 10.8 | 11.1 | 0.319 | 11.4 |
| B6 | 0.876 | 31.2 | – | 0.876 | 31.2 |
| B7 | 0.101 | 2.7 | – | – | – |
| B8 | 0.0367 | 1 | – | 0.028 | 1 |
| B9 | 0.294 | 8 | – | – | – |
| B10 | 0.133 | 3.6 | – | – | – |
| B11 | 0.0781 | 2.1 | – | – | – |
| B12 | – | – | – | 11.3 | 404 |
| B13 | – | – | – | 0.248 | 8.9 |
| B14 | – | – | – | 0.0416 | 1.5 |
| B15 | – | – | – | 0.417 | 14.9 |
| B16 | – | – | – | 0.743 | 26.5 |
| B17 | – | – | – | 0.281 | 10 |
| B18 | – | – | – | 4020 | 144000 |
